PMC5206904 (DNA repair, 2015)

Target: T1, recombinant ALKBH2 with a streptavidin binding peptide tag (human, UniProt Q6NS38 1-261)
T1 sequence (looked up): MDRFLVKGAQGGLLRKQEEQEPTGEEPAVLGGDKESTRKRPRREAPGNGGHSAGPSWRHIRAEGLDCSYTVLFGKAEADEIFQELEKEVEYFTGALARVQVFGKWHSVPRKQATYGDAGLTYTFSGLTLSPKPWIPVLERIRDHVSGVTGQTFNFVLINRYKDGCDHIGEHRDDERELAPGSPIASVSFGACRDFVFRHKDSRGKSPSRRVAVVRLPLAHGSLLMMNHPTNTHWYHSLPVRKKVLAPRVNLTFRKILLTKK
Assay: pull-down

binding result: binds
B1: recombinant PCNA mutant VDK188 (natural protein, UniProt P12004 1-261, looked up)
chain: MFEARLVQGSILKKVLEALKDLINEACWDISSSGVNLQSMDSSHVSLVQLTLRSEGFDTYRCDRNLAMGVNLTSMSKILKCAGNEDIITLRAEDNADTLALVFEAPNQEKVSDYEMKLMDLDVEQLGIPEQEYSCVVKMPSGEFARICRDLSHIGDAVVISCAKDGVKFSASGELGNGNIKLSQTSNAAAEEEAVTIEMNEPVQLTFALRYLNFFTKATPLSSTVTLSMSADVPLVVEYKIADMGHLKYYLAPKIEDEEGS
